Measured values: patent US20260092267

Tested on: H3K4 histone substrate (histone H3)

For “SETD7-dCas9 protein (purified from pET-SETD7-dCas9-NLS-6×His)”, the “in vitro H3K4 methylation activity” value was “the SETD7-dCas9 protein was confirmed to have H3K4 methylation activity with H3K4 histone substrate through in vitro analysis”.
